{
  "source": "patent US10550172B2",
  "about": "“Serpin reactive center loop peptides and methods of use” (University of Florida Research Foundation, Incorporated, priority 2015, dated 2020)",
  "key": {"[1]": {"system": "aortic allograft (plaque growth)", "assay": "Mouse aortic allograft transplant model", "protocol": "To assess potential anti-inflammatory actions of individual serpin-derived peptides, peptide treatment was tested in mice after aortic allograft transplant at 4 weeks.\nNinety three mice had aortic allograft transplantation; 56 had PAI-1−/− (C57BL/6 background) donor to BALB/c (PAI-1+/+) recipient; and 37 had C57BL/6 wild type (PAI-1+/+) to BALB/c (PAI-1+/+) recipient. […] Due to the large number of surgeries required, both the PAI-1−/− and the WT mouse implants were utilized. The PAI-1−/− mice also allowed analysis of serpin response in a mouse transplant lacking a key thrombolysis regulating serpin, PAI-1. A 0.3 cm aortic segment isolated from the donor mouse was transplanted into the infra-renal aorta of recipient mice for aortic allograft studies (Table 1). The aortic transplant was anastomosed end-to-end using Sharpoint 11/0 nylon sutures (Surgical Specialties Corporation, Reiding, Mass., USA) under general anesthetic (6.5 mg/100 g body weight Somnotrol, MTC Pharmaceuticals, Cambridge, ON, Canada) given by intramuscular (i.m.) injection. WT C57BL/6 mice were purchased directly from Jackson Laboratories (Bar Harbor, Me., U.S.A.) and PAI-1−/− mice were bred in-house using mice supplied by Jackson Laboratories prior to surgery. Mice were followed for 4 weeks after transplant. […] Serpins or serpin-derived peptides were infused by intravenous (i.v.) tail vein injection immediately after transplant surgery, once aortic pulsation was again visible. At 4 weeks after aortic transplant, mice were euthanized with 0.05 ml euthanyl (Bimeda—MTC Animal Health Ltd., Cambridge, ON, Canada) by i.m. injection.\nDonor aortic transplant implants and adjacent recipient aorta (0.5-0.6 cm long) were cut into two 0.25-0.3 cm pieces, fixed, paraffin embedded, and cut into 5 μm sections (two per aortic section, providing 4 sections for analysis of each transplanted mouse aorta) and stained with Haematoxylin and eosin for morphometric analysis. Areas of plaque, lumen and internal elastic lamina were measured by means of the Olympus application program using a Sony Power HAD3CCD color video camera attached to the microscope and calibrated to the microscope objective. The mean total cross sectional area of the intima, using sections with the largest detectable plaque area, was calculated for each aortic specimen. Numbers of invading mononuclear cells were counted per high powered field area at three sites in the intimal, medial and adventitial layers and the mean count for each arterial layer and specimen calculated."}, "[2]": {"target": "T1, urokinase-type plasminogen activator (uPA) (Homo sapiens, UniProt P00749)", "T1 construct": "purchased Sigma U0633", "assay": "uPA chromogenic enzyme activity assay", "type": "biochemical", "details": "chromogenic protease activity assay", "protocol": "Activity of purified NSP and Serp-1 was measured as inhibitory activity for uPA, using a chromogenic assay (Assaypro, St. Louis, Mo., USA) as previously described (for example, see, Dai E, et al. (2003) J Biol Chem 278: 18563-18572). Serp-1, NSP or individual peptides were mixed with enzyme solution at room temperature for one hour, per the manufacturers protocol (American Diagnostics). After incubation, 10 μl of chromogenic substrate was added. The 96-well plate was covered and placed in a wet box for overnight incubation at 37° C. After a 17 hr incubation, the plate was read at 405 nm by microplate reader (Bio-Tek Instruments). Reaction buffer (100 mM NaCl, 2 mM CaCl2, 100 mM Tris-HCl, pH 7.5, Triton X-100, 0.005%) was used for dilutions of proteases, Serp-1, NSP, or serpin peptides and chromogenic substrate. Residual protease activity was calculated with comparison to control samples without active serpin or peptides.\nSerpin inhibition activity of peptides was also assessed using assays for uPA, tPA, plamin, PAI-1 and anti-thrombin III (ATIII). […] Peptide inhibition of ATIII (ThermoFisher Scientific, Grand Island, N.Y.) was measured as a reduction in its thrombin activity. uPA (Sigma, U0633) activity towards pefachrome uPA (Enzyme Research Laboratories, South Bend, Ind., P082-33) was used for assaying peptide inhibition. […]"}, "[3]": {"system": "PMA activated THP-1 monocytes", "assay": "Membrane fluidity cell activation assay", "type": "cell-based, human", "details": "peptides 500, 1000, 1500 ng/ml, Serp-1, NSP 500 ng/mL", "protocol": "Cellular membrane fluidity is measured by pyrene dimer formation in the lipid bilayer and is used as a non-specific measure of cell activation (Zalai C V, et al. (2001) J Am Coll Cardiol 38: 1340-1347). Increases in THP-1 human monocyte membrane fluidity, after PMA activation, correlate with changes in cell activation, adhesion and motility. […] Serpin-derived peptide treatments paralleled in vivo activity with the one exception being the S-4 peptide. […] All serpin-derived peptides were tested at three doses 500, 1000 and 1500 ng/ml.\nOne million >95% viable THP-1, Jurkat T, or 5×10^5 HUVEC cells were labeled with BPP (0.8 μM) for studying core membrane fluidity, three hours prior to cell activation as previously described (Viswanathan K, et al. (2009) B. J Leukoc Biol 85: 418-426; Viswanathan K, et al. (2006) Thromb Haemost 95: 499-510; Zalai C V, et al. (2001) J Am Coll Cardiol 38: 1340-1347; Viswanathan K, et al. (2012) PLoS One 7: e44694; and Christov A, et al. (2001) Lasers Surg Med 28: 414-426). […] At the end of one hour, cells were washed to remove excess fluorescent probe and monomer, excimer fluorescence emission intensities were measured at 390 nm and 485 nm, respectively, during excitation at 320 nm using a fluorescent dual wavelength reader (Fluoroskan, Thermolab systems, Oy, USA). […]"}, "Jurkat T cells": {"system": "Jurkat T cells", "assay": "RT-PCR signaling pathway gene expression analysis, Jurkat T cells", "type": "cell-based, human", "details": "vs saline", "from_the_text": "(§1) Shared effects of Serp-1 and S-1, one of the active Serp-1 RCL peptide inhibitors for plaque growth, on transcription of representative genes in signaling pathways were studied in human Jurkat T cell (FIG. 5A and FIG. 5B) and THP-1 monocytes (FIGS. […]). […] Serp-1 and the Serp-1 peptides (serpin-derived peptides) S-1 and S-5 were compared to saline treated controls. Genes with two-fold change in expression with P-value less than 0.05 by Student's t-test were considered significant.\n(§2) To further examine potential mechanisms of inhibitory activity for individual serpin peptides, THP-1 monocyte and Jurkat T cells in culture were treated with individual serpins or serpin-derived peptides with proven inhibitory activity for plaque growth in vivo (Viswanathan K, et al. (2009) B. J Leukoc Biol 85: 418-426; Viswanathan K, et al. (2006) Thromb Haemost 95: 499-510; Chen H, et al. (2013) Antimicrob Agents Chemother 57: 4114-4127; and Viswanathan K, et al. (2012) PLoS One 7: e44694). RT-PCR signaling pathway gene arrays (Sigma-Aldrich, St. Louis, Mo., USA) were analyzed in triplicate per cell type using predicted peptide or serpin treatment."}, "THP-1 monocytes": {"system": "THP-1 monocytes", "assay": "RT-PCR signaling pathway gene expression analysis, THP-1 monocytes", "type": "cell-based, human", "details": "THP-1 cells, vs saline", "from_the_text": "as §1, §2"}, "[4]": {"details": "in vivo; cited from earlier work"}, "[5]": {"details": "patients with acute unstable angina after stent implantation; cited from earlier work"}, "lethal viral sepsis": {"system": "lethal viral sepsis", "details": "in vivo; cited from earlier work"}},
  "note": "“Also recorded” adds a separate entry of the source. Where a SMILES comes first, the peptide text is derived from it. Where no end group is shown, it is not given here.",
  "data": [
    {"molecule": "CC(C)C[C@H](NC(=O)[C@H](C)NC(=O)[C@H](CC(N)=O)NC(=O)[C@@H](N)CCCNC(=N)N)C(=O)O", "note": "[S-3, RNAL] (H-RNAL-OH; N-terminus and C-terminus assumed)", "values": [
      {"measurement": "Adverse Events (number)", "setting": "[1]; 15 μg/mouse", "value": 0}
    ]},
    {"molecule": "EVNEEGSEAAAVSGM [S-6]", "values": [
      {"measurement": "Adverse Events (kind)", "setting": "[1]; 1.5 μg/mouse", "value": "thrombosis"},
      {"measurement": "Adverse Events (number)", "setting": "[1]; 1.5 μg/mouse", "value": 1},
      {"measurement": "mortality (early thrombosis at site of aortic allograft transplant)", "setting": "[1]; 15 μg dose", "value": 100, "unit": "%"},
      {"measurement": "Adverse Events (kind)", "setting": "[1]; 15 μg/mouse", "value": "thromboses"},
      {"measurement": "Adverse Events (number)", "setting": "[1]; 15 μg/mouse", "value": 6}
    ]},
    {"molecule": "GTTASSDTAITLIPR [S-7]", "values": [
      {"measurement": "Adverse Events (number)", "setting": "[1]; 15 μg/mouse", "value": 0}
    ]},
    {"molecule": "IAISRM [S-4, IAISRM]", "values": [
      {"measurement": "Adverse Events (number)", "setting": "[1]; 15 μg/mouse", "value": 0}
    ]},
    {"molecule": "IPRNAL [S-1, IPRNAL]", "values": [
      {"measurement": "Adverse Events (number)", "setting": "[1]; 1.5 μg/mouse", "value": 0},
      {"measurement": "Adverse Events (kind)", "setting": "[1]; 15 μg/mouse", "value": "thrombosis; also recorded: fighting injury"},
      {"measurement": "Adverse Events (number)", "setting": "[1]; 15 μg/mouse", "value": 1},
      {"measurement": "Adverse Events (number)", "setting": "[1]; 150 μg/mouse", "value": 0}
    ]},
    {"molecule": "ISRMAV [S-2, ISRMAV]", "values": [
      {"measurement": "Adverse Events (kind)", "setting": "[1]; 15 μg/mouse", "value": "thrombosis"},
      {"measurement": "Adverse Events (number)", "setting": "[1]; 15 μg/mouse", "value": 1}
    ]},
    {"molecule": "MAVLYPQVIVDHPFFFLIRNR [S-8]", "values": [
      {"measurement": "Adverse Events (number)", "setting": "[1]; 15 μg/mouse", "value": 0}
    ]},
    {"molecule": "TAIVANKPF [S-5]", "values": [
      {"measurement": "Adverse Events (number)", "setting": "[1]; 1.5 μg/mouse", "value": 0},
      {"measurement": "Adverse Events (number)", "setting": "[1]; 15 μg/mouse", "value": 0},
      {"measurement": "Adverse Events (number)", "setting": "[1]; 150 μg/mouse", "value": 0}
    ]},
    {"molecule": "Serp-1: secreted myxomavirus-derived protein (serpin) that binds and inhibits uPA, tPA, plasmin and factor X (protein) RDIGLWTFRYVYNESDNVVFSPYGLTSALSVLRIAAGGNTKREIDVPESVVEDSDAFLALRELFVDASVPLRPEFTAEFSSRFNTSVQRVTFNSENVKDVINSYVKDKTGGDVPRVLDASLDRDTKMLLLSSVRMKTSWRHVFDPSFTTDQPFYSGNVTYKVRMMNKIDTLKTETFTLRNVGYSVTELPYKRRQTAMLLVVPDDLGEIVRALDLSLVRFWIRNMRKDVCQVVMPKFSVESVLDLRDALQRLGVRDAFDPSRADFGQASPSNDLYVTKVLQTSKIEADERGTTASSDTAITLIPRNALTAIVANKPFMFLIYHKPTTTVLFMGTITKGEKVIYDTEGRDDVVSSV", "values": [
      {"measurement": "inhibition of uPA activity", "setting": "[2]", "value": "inhibited; also recorded: dose dependent with greater inhibition at the higher concentration (500 ng)"},
      {"measurement": "IEx/IMon ratio (membrane fluidity)", "setting": "[3]", "value": "consistently reduced membrane fluidity significantly"},
      {"measurement": "BCL-2 gene expression", "setting": "Jurkat T cells", "value": "had no effect"},
      {"measurement": "TCF7 gene expression", "setting": "Jurkat T cells", "value": "inhibited"},
      {"measurement": "CCL 20 gene expression", "setting": "Jurkat T cells; data not shown", "value": "had no effect"},
      {"measurement": "CCND-1 gene expression", "setting": "Jurkat T cells; data not shown", "value": "had no effect"},
      {"measurement": "MMP7 gene expression", "setting": "Jurkat T cells; data not shown", "value": "had no effect"},
      {"measurement": "interleukin-8 (IL-8) gene expression", "setting": "Jurkat T cells; data not shown", "value": "had no effect"},
      {"measurement": "BRCA1 gene expression", "setting": "THP-1 monocytes", "value": "induced"},
      {"measurement": "Selectin P ligand (CD162) gene expression", "setting": "THP-1 monocytes", "value": "induced"},
      {"measurement": "cyclin-dependent kinase inhibitor 1B (CDKN1; p27) gene expression", "setting": "THP-1 monocytes", "value": "induced"},
      {"measurement": "glycogen synthase (GYS) gene expression", "setting": "THP-1 monocytes", "value": "induced"},
      {"measurement": "plasma half-life", "setting": "[4]", "value": "20 to 60", "unit": "min"},
      {"measurement": "early markers of myocardial damage", "setting": "[5]", "value": "reduced early markers of myocardial damage"},
      {"measurement": "survival in mouse models of lethal viral sepsis", "setting": "lethal viral sepsis", "value": "improved survival"}
    ]},
    {"molecule": "NSP: mammalian serpin, neuroserpin, that binds tPA and uPA (protein) TGATFPEEAIADLSVNMYNRLRATGEDENILFSPLSIALAMGMMELGAQGSTQKEIRHSMGYDSLKNGEEFSFLKEFSNMVTAKESQYVMKIANSLFVQNGFHVNEEFLQMMKKYFNAAVNHVDFSQNVAVANYINKWVENNTNNLVKDLVSPRDFDAATYLALINAVYFKGNWKSQFRPENTRTFSFTKDDESEVQIPMMYQQGEFYYGEFSDGSNEAGGIYQVLEIPYEGDEISMMLVLSRQEVPLATLEPLVKAQLVEEWANSVKKQKVEVYLPRFTVEQEIDLKDVLKALGITEIFIKDANLTGLSDNKEIFLSKAIHKSFLEVNEEGSEAAAVSGMIAISRMAVLYPQVIVDHPFFFLIRNRRTGTILFMGRVMHPETMNTSGHDFEEL", "values": [
      {"measurement": "inhibition of uPA activity", "setting": "[2]", "value": "inhibited"},
      {"measurement": "IEx/IMon ratio (membrane fluidity)", "setting": "[3]", "value": "consistently reduced membrane fluidity significantly"},
      {"measurement": "Adverse Events (kind)", "setting": "[1]; 15 μg/mouse", "value": "thrombosis"},
      {"measurement": "Adverse Events (number)", "setting": "[1]; 15 μg/mouse", "value": 1}
    ]}
  ]
}
